Values of other authors as cited in publication PMC5587394.

Target: FGF20 (Homo sapiens) (UniProt Q9NP95)

FGF20, sequence (Q9NP95 whole entry): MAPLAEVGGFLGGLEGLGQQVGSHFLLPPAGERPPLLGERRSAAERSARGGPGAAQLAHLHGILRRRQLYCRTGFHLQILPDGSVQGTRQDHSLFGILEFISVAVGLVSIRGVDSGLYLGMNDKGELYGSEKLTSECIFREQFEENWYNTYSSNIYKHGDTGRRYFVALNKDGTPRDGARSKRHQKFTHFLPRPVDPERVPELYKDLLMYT

For FGF20 (from UniProt Q9NP95), which Kd is on record?
Its Kd is 100 nM.
